Results: patent publication US20250034594A1, “RNA-GUIDED GENOME RECOMBINEERING AT KILOBASE SCALE” (THE BOARD OF TRUSTEES OF THE LELAND STANFORD JUNIOR …, priority 2021, published 2025)

B1: SSAP_312: SEQ ID NO: 481; Gallionellaceae bacterium CG1_02_56_997 (protein)
chain: GRKEVERIRDGSRGYQAAKKYKKESTWDTDFVAMGLKTAIRRICKFLPKSPELATALAMDEQAGRQNLNLDDVINGSYTPVVDKDTGEIVDVADGGKTGNSNAATSTKLEKLEKIVAALRDANSVEALDEIYIRAEGDLDDANLEIAMREYRKCKDAISNSLI
modifications: Gallionellaceae bacterium CG1_02_56_997
B2: SSAP_311: SEQ ID NO: 480; Paenibacillus graminis (protein, listed as Paenibacillus graminis)
chain: TVAIETQVQETLDRILDSKHDALPSDFKKKRFSENCKVYVAEEKDLHKYTIDDIVANLFKGAVLGLDFLAKECHLITGGVDLKFQTDYKGEMKLTKKYSVRPMLDVYAKNVREGDIFREQIIEGRPAIHFDPLPFNASKIIGSFAIALFQDGGMVYESIPAGEIEEIRKNYGKSLGDAWEKSQGEMYKRTVLRRLCKTIETDFDAEQRLIYEMGGAFEFTKQPTRSRQQSPFNPPEESEVIQNDRAAETDQG
B3: SSAP_260: SEQ ID NO: 429; Clostridium cochlearium (protein, listed as Clostridium cochlearium)
chain: ATNESLKNQLATKKETGIGSAGNTIKSLINSPVIKKRFEEVLDKRAPQYMSSIVNLVNSDTNLKKCDQMSVIASCMVAATMDLPVDKNLGYAWIVPYGNKAQFQMGYKGYVQLALRTGQYKSINVIEVHEGELEEWNPLTEELKIDFSKKESDAVIGYAGYFELLNGFKKSTYWTKEQITKHKNKFSKSDFGWKKDFDAMAKKTVLRNMLSKWGILSIEMQNAYTADHGVIKNEIMETGEVKENVEYIEADFESYEGTSIEEGGSNE
B4: SSAP_63: SEQ ID NO: 232 (protein)
chain: SELQQAAQGQADAGPVQVIYSHAKEIQNVLAKGTDMDRWLQMARLAVMRDPNLVNAAKRDPGSLMQAMLDCAEKGHIPGTEDYYLVPRKGGIQGMESWKGIAKRIMRSGRYQSIVAEVVYEGEDFDFNPNTMDRPVHQIKYMARTSGQPVLSYAYAVDHEGKPSTIAVADPRYIAKVKANSKGTVWADWDEAMYKKTAVKMLVDYVDTSSTDRRGVSTVQVDGPVGTFIDGVLEIEGGDQ
B5: SSAP_261: SEQ ID NO: 430; Peptoniphilus grossensis (protein, listed as Peptoniphilus grossensis)
chain: TNIQKQENRALSPVNQMKNLLKNQGMQNLFADALKENKDRFLASIIDLYNGDTSLQDCNPKEVVMEALKAATLNLPINKNLGYAYIVPYNSKGTTRPQFQIGYKGYIQMAQRSGQYKALNAGILYEGMEVKRDFLRGTFEIIGEPKSDKVMGYFAYFQLLNGYEKAIYMTKDEVTEHAERYSQSYGSKYSPWKKQFDEMGQKTVIKKLLSKYGVLTTEFQDAVKEEEDREVLRATENNAMLEMTNPDEEEETIEVNPETGEIIEDDVKAPF
B6: SSAP_292: SEQ ID NO: 461; Paenibacillus rhizosphaerae (protein, listed as Paenibacillus rhizosphaerae)
chain: SSKLVEINSKLDSFLDAQHKAMPKGFNKTRFLQNSMSVLRDIEGLEQCDPKSVALVMLKGAFLGLDFFNKECYPVVYAGKVEFQTDYKGEVKLVKKYSTKPVREIYAKLVRQGDDFSEEIVAGSQTINFKPLPFNNGEIVGAFAVVNYVDGTMQYDTMSTEEIEKIKVNFSRKSKKTNEYSKAWVVTPGEMYKKTVLRRLCKTIDLDFDTIEQAQAFEDAADMDFNQDSKPQQQSPLNPMVIDVEYEEVKEEQADAAEQE
B7: SSAP_161: SEQ ID NO: 330; Solobacterium moorei (protein, listed as Solobacterium moorei)
chain: TEIKAAKAPATVAKAGVSTQNKTIKDYITIMKPEIEKALPSTITPERFTRITLSAVSNNPKLQACSPSTFLSAMMQSAQLGLEPNTPLGQAYLIPYGNSCQFQLGYKGLLQLAYNSGQIKTIRTETVYENDEFKYELGLHSDLVHVPAMSNRGNPTAYYAVIEYTNGGYGFEVMSHDDVLEHAKKFSKTFNNGPWQSDFESMAKKTVLKQALKYAPLSTELVSKINTDETVKSSISDHMEEVKNDIDLSQIIDAETGEIHE
B8: SSAP_144: SEQ ID NO: 313; Romboutsia weinsteinii (protein, listed as Romboutsia weinsteinii)
chain: TNLKNTLKNKEAKGNNLAINPSYAMKQLMIKMKGEITSALPKELCSERFQRVALTAFNSNPKLQNCAPMTFIAAMMQSDQLGLEPNTPLGQAYLIPYKVKGIDKVQFQIGYKGLLELAHRSGRLKTLYAHEVRENDEFDIDYGLEQRLIHKPLLKGNRGEVIGYYAVYHLEHNGYSFVFMTYDEVLEHGKKYSKSFEGGIWEKEFDSMAKKTVIKKLLKYAPLSIEIQKAINFDESVKGSIDSDMLLVDKADESIDVEGNVLNQRGIKYGCI
B9: SSAP_7: SEQ ID NO: 176 (protein)
chain: STNDELKNKLANKQNGGQVASAQSLGLKGLLEAPTMRKKFESVLDKKAPQFLTSLLNLYNGDDYLQKTDPMTVVTSAMVAATLDLPIDKNLGYAWIVPYKGRAQFQLGYKGYIQLALRTGQYKSINVIEVRDGELLKWNRLTEEIELDLDNNTSEKVIGYCGYFQLINGFEKTVYWTRKEIEAHKKKFSKSDFGWKKDYDAMAKKTVLRNMLSKWGILSIDMQTAVTEDEAEPRERKDVTEDESIPDIIDAPITPSDTLEAGSEVQGSMI
B10: SSAP_79: SEQ ID NO: 248 (protein)
chain: EALLLRRWQMGNLTKTTGFALAPQNLEQAMQLATMICNSQLAPNNYKGKPEDTLVAMMMGHELGLNPLQSIQNIAVINGRPSIYGDALLALVQNSPAFGGIQESFDEDTMTATCTVWRKGGEKHTQHYSKDDADTAGLWGKQGPWKQHPKRMLAMRARGFAVRNQFADALAGLVTREEAEDMEKEINPTPAPQAQSKRIGQKQSRTQYSESDFNENFPKWKAAVESGKKTSEQIISMVSTKGDLTQGMIEAIESIEAGEPA
B11: SSAP_255: SEQ ID NO: 424; Bacteroides eggerthii (protein, listed as Bacteroides eggerthii)
chain: GTVTTVPQLKSMLANENVKSRFKEILGKKAPGFISSIVAVANSNTLLQKAEPQSIMNAAVIAATLDLPINPNLGFAYIIPYGNQASFQIGYKGMTQLAMRSGQYKTINVTEVYEGEIKSENRFTGEYTFGERKSDKIVGYMAYFSLTNGFEKYMYMSREECEKHGKKFSQTYKRGGGLWATDFDSMSKKTVLKMLISKYGILSIDMQRAQTFDQAVVKDDLVEKNIDEAEVSYEDNPTNADVRRNAMKEALEEAEVVDETTGEIFNQPAQ
B12: SSAP_78: SEQ ID NO: 247 (protein)
chain: RTDGTKEAGAAATAPTEGKAPAKAHKPADTIGAMIEKLKPQIERALPKHVTPDRMARMALTAIRNNPKLGQAEAVSLMGSIIQASQLGLEPNTPLGQCYIIPYNSKNGMQAQFQMGYKGIVDLAHRSGQYRQLTAHPVDEADEFRYSYGLNPDLVHVPAEKPSGKITHYYAVYHLTNGGFDFRVWSREKVEAHAKQYSKSFSSGPWQTNFDQMACKTVMIDLLRYAPKSVEIAKATSADNRTHTINPEDPDLNIDTIDGDFELEGEER
B13: SSAP_230: SEQ ID NO: 399; Leuconostoc pseudomesenteroides (protein)
chain: ANEITLAKQLSSDKVVEQFAATAGESAKSFAKEVALTISGNPALQHAKLGTVIVEATKASALGLSLLPTVGEAYLVPYKGDAQFQLGYKGIVQLAMRSGQMKSFGAESVYEGENPKWDKYNQELVTDGEETGKIIGYYAFFTLVNGFKMAAYWPKEKVEAHRDRFSKSKKGPWSTDFDAMAKKTVLKSILQYAPKSSEMKRALAEDTQAEYVQAGIQDVTPEPANIEAPIETANAPEINAQEESLFGELSDVDKETAPNPFAQNLGGDN
modifications: Leuconostoc pseudomesenteroides

Columns and labels:
Assay type in all cases: cell-based
[1] = tested on: gene editing with Cas9 and dCas9; assay: Screen of 322 new SSAP proteins, activity across all experiments (Cas9 and dCas9, Table 5); parameters: scale not given here
Summary of the method: (§1)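 Sequence-mined SSAPs (n=322), synthesized; editing activity screened with Cas9 or dCas9.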

gene editing with Cas9 = assay: Screen of 322 new SSAP proteins, gene editing activity with Cas9 (Table 5); parameters: Cas9 with SSAP activity: scale not given here
Summary of the method: as §1

gene editing with dCas9 = assay: Screen of 322 new SSAP proteins, gene editing activity with dCas9 (Table 5); parameters: dCas9 with SSAP activity: scale not given here
Summary of the method: as §1

Molecule | Activity across all experiments [1] | Cas9 with SSAP activity (gene editing with Cas9) | Cas9 with SSAP activity (normalized) (gene editing with Cas9) | dCas9 with SSAP activity (gene editing with dCas9) | dCas9 with SSAP activity (normalized) (gene editing with dCas9)
B1 | −0.501 | −0.905 | −0.436 | −0.097 | −0.073
B2 | −6.749 | −6.123 | −0.874 | −7.375 | −1.526
B3 | −5.739 | −3.745 | −0.581 | −7.734 | −1.301
B4 | −3.427 | 0.570 | 2.381 | −7.424 | −1.335
B5 | −4.137 | −0.535 | −0.174 | −7.740 | −1.199
B6 | −6.169 | −4.432 | −0.752 | −7.905 | −1.546
B7 | −0.857 | −1.623 | −0.850 | −0.092 | −0.051
B8 | −4.771 | −2.249 | −0.663 | −7.293 | −1.765
B9 | −7.537 | −7.628 | −1.701 | −7.447 | −1.443
B10 | −4.489 | −1.629 | −2.086 | −7.349 | −2.203
B11 | −3.873 | −0.273 | −0.044 | −7.473 | 
B12 | −4.307 | −0.849 | −0.295 | −7.766 | −2.216
B13 | −3.700 | 0.548 | 0.321 | −7.949 | −1.164
